T1: p63^Krsl protein kinase (product of the Krsl gene), endogenous in mouse NIH3T3 cytosolic lysate (S20), Q9JI10
T1 chain: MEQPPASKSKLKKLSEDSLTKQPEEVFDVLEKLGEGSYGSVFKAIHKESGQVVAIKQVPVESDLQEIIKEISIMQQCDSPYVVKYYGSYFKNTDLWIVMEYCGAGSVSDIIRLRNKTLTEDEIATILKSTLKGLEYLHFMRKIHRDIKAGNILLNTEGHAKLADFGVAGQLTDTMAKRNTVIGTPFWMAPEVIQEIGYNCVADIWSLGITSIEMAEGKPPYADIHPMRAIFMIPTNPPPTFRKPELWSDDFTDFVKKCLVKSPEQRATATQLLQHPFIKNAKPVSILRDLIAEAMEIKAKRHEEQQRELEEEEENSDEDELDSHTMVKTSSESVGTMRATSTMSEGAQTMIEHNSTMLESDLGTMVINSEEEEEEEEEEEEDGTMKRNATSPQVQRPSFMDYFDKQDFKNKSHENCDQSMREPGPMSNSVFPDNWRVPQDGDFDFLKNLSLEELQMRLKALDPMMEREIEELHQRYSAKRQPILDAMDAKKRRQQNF

B1: Lambda protein phosphatase (lambda PPase) (NE BioLabs) (protein)
chain: MRYYEKIDGSKYRNIWVVGDLHGCYTNLMNKLDTIGFDNKKDLLISVGDLVDRGAENVECLELITFPWFRAVRGNHEQMMIDGLSERGNVNHWLLNGGGWFFNLDYDKEILAKALAHKADELPLIIELVSKDKKYVICHADYPFDEYEFGKPVDHQQVIWNRERISNSQNGIVKEIKGADTFIFGHTPAVKPLKFANQMYIDTGAVFCGNLTLIQVQGEGA
B2: Recombinant human Caspase-3 (Alexis Biochemicals) (protein)
chain: SGISLDNSYKMDYPEMGLCIIINNKNFHKSTGMTSRSGTDVDAANLRETFRNLKYEVRNKNDLTREEIVELMRDVSKEDHSKRSSFVCVLLSHGEEGIIFGTNGPVDLKKITNFFRGDRCRSLTGKPKLFIIQACRGTELDCGIETDSGVDDDMACHKIPVEADFLYAYSTAPGYYSWRNSKDGSWFIQSLCAMLKQYADKLEFMHILTRVNRKVATEFESFSFDATFHAKKQIPCIVSMLTKELYFYH

Key:
[1] = target: p33^QIK, quiescence induced kinase, 33-kDa Krsl-related cytoplasmic protein kinase, endogenous in mouse NIH3T3 cytosolic lysate (S20)
[2] = target: T1, p63^Krsl protein kinase (product of the …)
[3] = target: p35, protein kinase of 35 kDa in STSP-treated NIH3T3 cells

Protein | kinase activity of p33^QIK in Ab-KQ immune complexes after phosphatase treatment (in-gel kinase assay, MBP substrate) [1] | kinase activity in Ab-KQ immune complexes after caspase-3 treatment (in-gel kinase assay, MBP substrate) [2] | kinase activity in Ab-KQ immune complexes after caspase-3 treatment (in-gel kinase assay, MBP substrate) [3] | kinase activity in Ab-KQ immune complexes after caspase-3 treatment (in-gel kinase assay, MBP substrate) [1]
B1 | A similar result was obtained by using Lambda phosphatase in the reaction |  |  | 
B2 |  | both the kinase activities of p63^Krsl and p35 decreased in correlation with an increased p33^QIK activity that was completely blocked by a wide range caspase inhibitor Z-D-CH2-DCB | both the kinase activities of p63^Krsl and p35 decreased in correlation with an increased p33^QIK activity that was completely blocked by a wide range caspase inhibitor Z-D-CH2-DCB | no change was detected in the kinase activity of p33^QIK which was isolated from osmotic-stressed quiescent cultures (FIG. 8, lanes 6 to 8) or growing cultures

— patent US20030170252
